{"source": "patent US20100075897A1", "about": "“METHOD FOR S[…] BIOACTIVE PEPTIDES AND APPLICATION THEREOF” (JINAN UNIVERSITY, priority 2008, published 2010)", "key": {"[1]": {"target": "T1, human serum albumin (human, UniProt P02768 25-609)", "T1 construct": "Bought protein; coated on plates (ELISA) or coupled to a CM5 chip (SPR); also called HSA; human albumin", "T1 sequence (P02768 25-609 limits assumed)": "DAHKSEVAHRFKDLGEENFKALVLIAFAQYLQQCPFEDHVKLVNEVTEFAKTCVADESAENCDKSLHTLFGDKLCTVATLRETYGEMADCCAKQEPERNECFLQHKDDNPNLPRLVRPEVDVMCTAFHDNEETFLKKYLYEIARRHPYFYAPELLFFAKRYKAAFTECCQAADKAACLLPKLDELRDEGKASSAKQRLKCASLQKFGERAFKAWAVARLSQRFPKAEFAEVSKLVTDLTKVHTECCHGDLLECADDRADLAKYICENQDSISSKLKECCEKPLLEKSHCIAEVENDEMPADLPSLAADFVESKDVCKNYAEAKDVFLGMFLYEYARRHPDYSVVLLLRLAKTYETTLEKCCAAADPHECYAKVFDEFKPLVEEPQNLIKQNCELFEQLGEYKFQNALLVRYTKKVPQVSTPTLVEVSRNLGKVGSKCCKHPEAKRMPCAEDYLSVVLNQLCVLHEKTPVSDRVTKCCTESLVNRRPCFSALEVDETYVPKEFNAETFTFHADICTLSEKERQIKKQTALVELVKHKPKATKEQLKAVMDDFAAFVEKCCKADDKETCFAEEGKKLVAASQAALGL", "assay": "phage ELISA on plate-coated HSA, sample row, dilution column 3 of 12"}, "[2]": {"target": "T1, human serum albumin", "assay": "SPR (BIAcore 3000), HSA on CM5 chip, polypeptide injected, 1:1 model", "method": "Signal of conjugated channel subtracted by that of unconjugated channel of injected solution was calculated as the amount of bound peptides during a defined period, as shown in FIG. 4. PBS buffer containing 0.05% Tween-20 was used for dilution of all samples. SPR curve was evaluated by BIAcore™ kinetics evaluation software (Version 4.1). […] Kd was calculated from binding rate (kₒₙ) and dissociating rate (koff), i.e. dissociation constant."}}, "note": "Ends that are not written are not given here."}
{"binder": "DICLPRWGCLWE (not fully specified (bridges); cysteine pairing not given here; also: displayed on M13 phage coat protein, Tested as whole phage particles, not as free peptide; not shown: not described)", "note": "[Phage ID NO. 3 (M13 phage displaying the peptide of SEQ ID NO. 3, DICLPRWGCLWE)]", "values": [{"measurement": "absorbance at 405 nm", "setting": "[1]", "result": 0.1}]}
{"binder": "LPWHLKYREPPR (not fully specified; also: fusion polypeptide ABP-LK-GLP, linker and GLP-1 part not given here, also called ABP-LK-GLP; not shown: rest of DP5.1 (any N-terminal Pro, linker, GLP-1 part) is printed nowhere)", "note": "[DP5.1 fusion polypeptide]", "values": [{"measurement": "Kd", "setting": "[2]", "result": 4.6, "unit": "µM"}]}
